Reference: US5705609A, “Decorin fragments inhibiting cell regulatory factors” (La Jolla Cancer Research Foundation, priority 1995, dated 1998)

Assays:
CHO cells = experiment: [3H]thymidine incorporation (growth) in CHO cells; assay type: cell-based; details: TGFβ-1 at 5 ng/ml
Protocol: (§1) The ability of decorin to modulate the activity of TGFβ-1 was examined in [^3 H]thymidine incorporation assays. In one assay, an unamplified CHO cell line transfected only with pSV2dhfr (control cell line A in reference 1, called CHO cells here) was used. The cells were maintained in nucleoside-free alpha-modified minimal essential medium (e-MEM, GIBCO, Long Island, N.Y.) supplemented with 9% dialyzed fetal calf serum (dFCS) and [^3 H]thymidine incorporation was assayed as described (Cheifetz et al., Cell 48:409-415 (1987)). TGFβ-1 was added to the CHO cell cultures at 5 ng/ml. At this concentration, it induced a 50% increase of [^3 H]thymidine incorporation in these cells. Decorin or BSA was added to the medium at different concentrations. The data represent percent neutralization of the TGFβ-1-induced growth stimulation, i.e., [^3 H]thymidine incorporation, in the absence of either TGFβ-1 or decorin=0%, incorporation in the presence of TGFβ-1 but not decorin=100%. […] Decorin (.circle-solid.) BSA (.largecircle.).
This was shown by gel filtration of the DEAE-isolated decorin under dissociating conditions. […] The fractions were analyzed by SDS-PAGE, decorin ELISA and cell growth assays, all described above. […] Shown are the ability of the gel filtration fractions to affect [^3 H]-thymidine incorporation by the CHO cells and the concentration of decorin as determined by enzyme immunoassay. […]

Mv1Lu cells = experiment: [3H]thymidine incorporation (growth) in Mv1Lu mink lung epithelial cells; assay type: cell-based; details: TGFβ-1 at 0.5 ng/ml
Protocol: Assay was performed as in FIG. 4A, except that TGFβ-1 was added at 0.5 ng/ml. This concentration of TGFβ induces 50% reduction of [^3 H]-thymidine incorporation in the Mv1Lu cells. The data represent neutralization of TGFβ-induced growth inhibition; i.e., [^3 H]-thymidine incorporation in the presence of neither TGFβ or decorin=100%; incorporation in the presence of TGFβ but not decorin=0%. […] This was shown by gel filtration of the DEAE-isolated decorin under dissociating conditions. […] The fractions were analyzed by SDS-PAGE, decorin ELISA and cell growth assays, all described above. Three protein peaks were obtained. […] Shown are the ability of the gel filtration fractions to affect [^3 H]-thymidine incorporation by the CHO cells and the concentration of decorin as determined by enzyme immunoassay. Shown also (arrows) are the elution positions of molecular size markers: BSA, bovine serum albumin (Mr=66,000); CA, carbonic anhydrase (Mr=29,000); Cy, cytochrome c (Mr=12,400); AP, aprotinin (Mr=6,500); TGF, [^125 I]TGFβ-1 (Mr=25,000).

TGF-β [1] = target: T1, TGF-β (Homo sapiens, UniProt P01137); experiment: Binding of 125I-TGF-β to L-M(tk-) cells; details: 250 pM [125I]TGF-β, 2 hours room temperature; proteins
Protocol: (§2) About 2.5×10^4 HepG2 cells or L-M(tk-) cells were incubated with 250 pM[^125 I]TGF-β in the presence of recombinant human decorin (DC-12), PT-71 (MBP), decorin fragments (PT-72, -73, -84, -85, -86 and -87) or anti-TGF-β antibodies for 2 hours at room temperature. Cells were washed with washing buffer (128 mM NaCl, 5 mM KCl, 5 mM […], 1.2 mM CaCl2, 50 mM HEPES, pH 7.5) four times before determination of bound CPM.
The activity of the peptides was evaluated using the L-M(tk-) TGFβ1 binding inhibition assay described in Example VII, except various concentrations of peptide were incubated with the cells and TGFβ1 instead of decorin and recombinant decorin fragments. The negative control was a synthetic peptide corresponding to the first 15 amino acids of decorin, which has the sequence […](SEQ ID NO. 21).

TGF-β [2] = target: T1, TGF-β; experiment: Binding of 125I-TGF-β to HepG2 cells; details: 250 pM [125I]TGF-β, 2 hours room temperature
Protocol: as §2

TGFβ-1 [3] = target: T2, TGFβ-1 (Homo sapiens, UniProt P01137); experiment: [3H]thymidine incorporation assay: neutralization of TGFβ-1-induced growth stimulation in CHO cells; assay type: cell-based; parameters: contains a major band at 25 kd; This band represents the native TGFβ-1 dimer; purchased Calbiochem, La Jolla, Calif
Protocol: as §1
IgG from a normal rabbit serum had no effect in the assay (.largecircle.).

TGFβ-1 [4] = target: T2, TGFβ-1; experiment: Microtiter binding assay: [125I]-TGFβ-1 binding to decorin-coated wells and competition; parameters: contains a major band at 25 kd; This band represents the native TGFβ-1 dimer; purchased Calbiochem, La Jolla, Calif; details: intact proteoglycans, 37° C. 4 hours (FIG. 3A)
Protocol: The binding of TGFβ-1 to decorin was also examined in a microtiter binding assay. To perform the assay, the wells of a 96-well microtiter plate were coated overnight with 2μg/ml of recombinant decorin in 0.1M sodium carbonate buffer, pH 9.5. The wells were washed with PBS containing 0.05% Tween (PBS/Tween) and samples containing 5×10^4 cpm of [^125 I]-TGFβ-1 and various concentrations of competitors in PBS/Tween were added to each well. The plates were then incubated at 37° C. for 4 hours (at 4° C. overnight in experiments with chondroitinase ABC-digested proteoglycans), washed with PBS/Tween and the bound radioactivity was solubilized with 1% SDS in 0.2M NaOH. Total binding without competitors was about 4% under the conditions used. Nonspecific binding, determined by adding 100-fold molar excess of unlabeled TGFβ-1 over the labeled TGFβ-1 to the incubation mixture, was about 13% of total binding. This assay was also used to study the ability of other decorin preparations and related proteins to compete with the interaction.
Decorin isolated from bovine skin and biglycan isolated from bovine articular cartilage (PGI and PGII, obtained from Dr. Lawrence Rosenberg, Monteflore Medical Center, N.Y.; and described in Rosenberg et al., J. Biol. Chem. 250:6304-6313, (1985), incorporated by reference herein), chicken cartilage proteoglycan (provided by Dr. Paul Goetinck, La Jolla Cancer Research Foundation, La Jolla, Calif., and described in Goetinck, P. F., in THE GLYCOCONJUGATES, Vol. III, Horwitz, M. I., Editor, pp. 197-217, Academic Press, NY). For the preparation of core proteins, proteoglycans were digested with chondroitinase ABC (Seikagaku, Tokyo, Japan) by incubating 500 μg of proteoglycan with 0.8 units of chondroitinase ABC in 250 μl of 0.1M Tris/Cl, pH 8.0, 30 mM sodium acetate, 2 mM PMSF, 10 mM N-ethylmalelmide, 10 mM EDTA, and 0.36 mM pepstatin for 1 hour at 37° C. Recombinant decorin and decorin isolated from bovine skin (PGII) inhibited the binding of [^125 I]-TGFβ-1, as expected (FIG. 3A). […] This notion was further supported by competition experiments with the mutated decorin core protein (not shown) and chondroitinase ABC-digested decorin and biglycan (FIG.3B). Each of these proteins was inhibitory, whereas cartilage proteoglycan core protein was not.

TGFβ-1 [5] = target: T2, TGFβ-1; experiment: [3H]thymidine incorporation assay: neutralization of TGFβ-1-induced growth inhibition in Mv1Lu cells; assay type: cell-based, mink; parameters: contains a major band at 25 kd; This band represents the native TGFβ-1 dimer; details: TGFβ-1 0.5 ng/ml
Protocol: Assay was performed as in FIG. 4A, except that TGFβ-1 was added at 0.5 ng/ml. This concentration of TGFβ induces 50% reduction of [^3 H]-thymidine incorporation in the Mv1Lu cells. The data represent neutralization of TGFβ-induced growth inhibition; i.e., [^3 H]-thymidine incorporation in the presence of neither TGFβ or decorin=100%; incorporation in the presence of TGFβ but not decorin=0%.

T2 sequence (P01137 279-390 limits assumed, species assumed): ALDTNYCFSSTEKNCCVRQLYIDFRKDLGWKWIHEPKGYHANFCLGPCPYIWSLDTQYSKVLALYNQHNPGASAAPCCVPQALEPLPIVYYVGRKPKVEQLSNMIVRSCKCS
T1 sequence (P01137 279-390 limits assumed): as the sequence (P01137 279-390 limits assumed, species assumed) above

## TGFβ-1: commercially obtained transforming growth factor β-1
CHO cells
  increase of [3H]thymidine incorporation: 50%
Mv1Lu cells
  reduction of [3H]-thymidine incorporation: 50%

B1: Recombinant human decorin: recombinant human decorin (DC-12) (protein)
chain: DEASGIGPEVPDDRDFEPSLGPVCPFRCQCHLRVVQCSDLGLDKVPKDLPPDTTLLDLQNNKITEIKDGDFKNLKNLHALILVNNKISKVSPGAFTPLVKLERLYLSKNQLKELPEKMPKTLQELRAHENEITKVRKVTFNGLNQMIVIELGTNPLKSSGIENGAFQGMKKLSYIRIADTNITSIPQGLPPSLTELHLDGNKISRVDAASLKGLNNLAKLGLSFNSISAVDNGSLANTPHLRELHLDNNKLTRVPGGLAEHKYIQVVYLHNNNISVVGSSDFCPPGHNTKKASYSGVSLFSNPVQYWEIQPSTFRCVYVRSAIQLGNYK
modifications: single glycosaminoglycan chain of a chondroitin sulfate/dermatan sulfate type on serine-4
TGF-β [1]
  inhibition of 125I-TGF-β binding to L-M(tk-) cells: inhibited
TGF-β [2]
  inhibition of 125I-TGF-β binding to HepG2 cells: inhibited

B2: Decorin: recombinant decorin proteoglycan purified from transfected CHO cell media (protein)
chain: B1 chain
modifications: single glycosaminoglycan chain of a chondroitin sulfate/dermatan sulfate type on serine-4
notes: recombinant decorin proteoglycan purified from transfected CHO cell media
TGFβ-1 [3]; TGFβ-1 5 ng/ml
  half maximal activity, neutralization of growth stimulatory activity of TGFβ-1: about 5 μg/ml
TGFβ-1 [3]; higher decorin concentrations
  [3H]-thymidine incorporation with additional decorin: suppressed the [^3 H]-thymidine incorporation below the level observed without any added TGFβ-1
TGFβ-1 [4]
  inhibition of [125I]-TGFβ-1 binding to decorin-coated wells: inhibited
TGFβ-1 [5]
  effect on TGFβ-1-induced growth inhibition: revealed an effect by decorin on the activity of TGFβ-1
